Assays:
[1] = molecular target: T1, SpTbr T-box (Strongylocentrotus purpuratus) (UniProt A0A7M7RD59)
T1 sequence: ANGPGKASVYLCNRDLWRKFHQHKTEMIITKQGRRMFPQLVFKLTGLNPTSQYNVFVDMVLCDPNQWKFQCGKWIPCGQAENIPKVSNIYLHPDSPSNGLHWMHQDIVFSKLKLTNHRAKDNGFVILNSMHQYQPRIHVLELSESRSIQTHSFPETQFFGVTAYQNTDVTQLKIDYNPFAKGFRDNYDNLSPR

[2] = molecular target: T2, PmTbr T-box (Patiria miniata) (UniProt A0A075Q982)
T2 sequence: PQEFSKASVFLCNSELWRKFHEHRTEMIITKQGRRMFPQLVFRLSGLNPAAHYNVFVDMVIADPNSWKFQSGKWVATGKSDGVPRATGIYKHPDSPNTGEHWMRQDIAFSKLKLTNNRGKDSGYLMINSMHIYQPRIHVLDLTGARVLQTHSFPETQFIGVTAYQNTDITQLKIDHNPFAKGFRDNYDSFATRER

[3] = tested on: PmTbr DNA-binding domain (T-box) (Patiria miniata); test: SPR (steady state); conditions: SPR running buffer 50 mM Mops (pH not given; protein buffer 20 mM Mops pH 7.5), 150 mM NaCl, 1 mM DTT, 0.01% P20, 20 °C, 30 µl/min; streptavidin-coated CM5 …
[4] = tested on: SpTbr DNA-binding domain (T-box) (Strongylocentrotus purpuratus); test: SPR (steady state); conditions: SPR running buffer 50 mM Mops (pH not given; protein buffer 20 mM Mops pH 7.5), 150 mM NaCl, 1 mM DTT, 0.01% P20, 20 °C, 30 µl/min; streptavidin-coated CM5 …

Sequence	binding signal (PBM E-score (-0.5 to 0.5)) [1]	binding signal (PBM E-score (-0.5 to 0.5)) [2]	Kd [3]	Kd [4]
AAGGTGTC (double strand) [8-mer AAGGTGTC]	0.487			
AGTGTGAA (double strand) [8-mer AGTGTGAA]	0.489			
AGGTGTTA (double strand) [8-mer AGGTGTTA]	0.494	0.496		
ACACCTCC (double strand) [8-mer ACACCTCC]		0.49		
AAGTGTGA (double strand) [8-mer AAGTGTGA]	0.488			
GTGTGAAC (double strand) [8-mer GTGTGAAC]	0.493			
ATCACACC (double strand) [8-mer ATCACACC]	0.488			
AGGTGTCG (double strand) [8-mer AGGTGTCG]		0.492		
GACACCTC (double strand) [8-mer GACACCTC]		0.49		
CTCACACC (double strand) [8-mer CTCACACC]	0.494	0.491		
AACACCTC (double strand) [8-mer AACACCTC]		0.491		
CTTTAGGTGACAAACGGTTTTCCGTTTGTCACCTAAAG [PmTbr Secondary Site Hairpin]			446 nM	989 nM
GGTGCGAA (double strand) [8-mer GGTGCGAA]	0.487			
AGGTGCGA (double strand) [8-mer AGGTGCGA]	0.496	0.497		
AGGTGTCA (double strand) [8-mer AGGTGTCA]	0.494	0.495		
CACACCTC (double strand) [8-mer CACACCTC]	0.49	0.49		
CTTTAGGTGTGAAACGGTTTTCCGTTTCACACCTAAAG [Primary Tbr Site Hairpin]			107 nM	137 nM
ACACCTCG (double strand) [8-mer ACACCTCG]		0.49		
GGGTGTGA (double strand) [8-mer GGGTGTGA]	0.493	0.492		
AGGTGCTA (double strand) [8-mer AGGTGCTA]		0.491		
GGTGTGAA (double strand) [8-mer GGTGTGAA]	0.497	0.496		
AGGTGTGA (double strand) [8-mer AGGTGTGA]	0.498	0.499		
GTGTGAAA (double strand) [8-mer GTGTGAAA]	0.49	0.49		
CTTTAGGTGTCGAACGGTTTTCCGTTCGACACCTAAAG [MmEomes Secondary Hairpin]			732 nM	882 nM

From PMC4166925
